Assay results from patent US20260317782 (published 2026).

B1: V0004 (antibody, V domains shown)
VH: QVQLQQPGAELVKPGASVKLSCKASDYTFTNYWMHWVKQRPGRGLEWIGRIDPNSGGTRYNEKFKNKATLTVDKPSSTAYMHLSSLTSEDSAVYYCAGDFDVWGTGTTVTVSS
VL: DIQMTQSPASLSASVGETVTITCRASGNIHNYLAWYQQRQGKSPQLLVYNAKTLPDGVPSRFSGSGSGTQYSLKINSLQPEDFGSYCCQHFWSTPLTFGAGTKLELK
modifications: non-phosphorylated
B2: V0009 (antibody, V domains shown)
VH: EVQLVESGGALVQPGGSLSLSCAASGFTFTDYYMSWVRQPPGKALEWLALIRNKAKGFTTEYSASVKGRFTISRDNSQSILLFQMNDLRADDSATYYCVRDINYWGQGTTLTVSS
VL: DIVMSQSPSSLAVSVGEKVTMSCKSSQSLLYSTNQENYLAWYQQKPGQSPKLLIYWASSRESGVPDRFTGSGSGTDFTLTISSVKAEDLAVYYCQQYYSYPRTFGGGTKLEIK
modifications: non-phosphorylated
B3: V0024 (antibody, V domains shown)
VH: QVQLQQPGTELVKPGASVKLSCKASGYTFTRFWMHWVKQRPGQGLEWIGNINPNNGGTDNNERFKSKATLTVDRSSSTAYMQLSSLTSEDSAVYYCARGTGTGAMDYWGQGTSVTVSS
VL: DVVMTQTPLSLPVSLGDQASISCRSSQSLVHSNGNTHLYWYLQKPGQSPKLLIYRVSSRFSGVPDRFSGSGSGTDFTLKISRVEAEDLGVYFCFQGTHVPRTFGGGTKLEIK
modifications: non-phosphorylated

Target: wild type tau (human, UniProt P10636)
Assay: ELISA

wild type tau, sequence (P10636 2-758): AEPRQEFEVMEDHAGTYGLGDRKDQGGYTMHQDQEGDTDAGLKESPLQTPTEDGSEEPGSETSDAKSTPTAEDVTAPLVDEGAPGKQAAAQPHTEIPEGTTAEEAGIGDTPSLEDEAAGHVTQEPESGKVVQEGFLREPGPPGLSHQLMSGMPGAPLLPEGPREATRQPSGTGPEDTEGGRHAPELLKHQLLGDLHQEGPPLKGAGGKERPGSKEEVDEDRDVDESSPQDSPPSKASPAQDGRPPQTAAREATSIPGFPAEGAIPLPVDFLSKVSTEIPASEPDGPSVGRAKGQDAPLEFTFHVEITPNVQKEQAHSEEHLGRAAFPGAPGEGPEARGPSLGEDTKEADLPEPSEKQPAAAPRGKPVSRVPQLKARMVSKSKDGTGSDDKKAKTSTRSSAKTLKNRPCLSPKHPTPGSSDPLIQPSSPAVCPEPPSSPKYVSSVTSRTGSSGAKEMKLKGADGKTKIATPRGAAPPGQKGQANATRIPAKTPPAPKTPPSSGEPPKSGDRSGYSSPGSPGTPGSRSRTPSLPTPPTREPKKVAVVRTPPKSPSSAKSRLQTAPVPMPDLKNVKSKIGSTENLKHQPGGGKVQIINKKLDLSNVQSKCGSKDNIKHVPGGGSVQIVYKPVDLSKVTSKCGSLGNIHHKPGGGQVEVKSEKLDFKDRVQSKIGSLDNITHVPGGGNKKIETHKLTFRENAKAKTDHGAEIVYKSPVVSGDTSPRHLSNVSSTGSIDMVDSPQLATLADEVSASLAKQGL

Binder	binding result
B1	no binding
B2	no binding
B3	no binding
